Test results taken from patent US7785835 (QUEENSLAND UNIVERSITY OF TECHNOLOGY, dated 2010).
One block for each binder: values may come before it.

What was measured:
vitronectin [1] = target: T1, vitronectin (UniProt P04004 20-478); experiment: [^125I]-IGF-I bound to VN-coated wells with 2 ng of the non-glycosylated IGFBP-3 mutant; IGFBP:VN binding read through labelled IGF-I
T1 construct: also called VN

vitronectin [2] = target: T1, vitronectin; experiment: [^125I]-IGF-I bound to VN-coated wells (300 ng/well) with 5 ng IGFBP; IGFBP:VN binding read through labelled IGF-I

T1 sequence (P04004 20-478 limits assumed): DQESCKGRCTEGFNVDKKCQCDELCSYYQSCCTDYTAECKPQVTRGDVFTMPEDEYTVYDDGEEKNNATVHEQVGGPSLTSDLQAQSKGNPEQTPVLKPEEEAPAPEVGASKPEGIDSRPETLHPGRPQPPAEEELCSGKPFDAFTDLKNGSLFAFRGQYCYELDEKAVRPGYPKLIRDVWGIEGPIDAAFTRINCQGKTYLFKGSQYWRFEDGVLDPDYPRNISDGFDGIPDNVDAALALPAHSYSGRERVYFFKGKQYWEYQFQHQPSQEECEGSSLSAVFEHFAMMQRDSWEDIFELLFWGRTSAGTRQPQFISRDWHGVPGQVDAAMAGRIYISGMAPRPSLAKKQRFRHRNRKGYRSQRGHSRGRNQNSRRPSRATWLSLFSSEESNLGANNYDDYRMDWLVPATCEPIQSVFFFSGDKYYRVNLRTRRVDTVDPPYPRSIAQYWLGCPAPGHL

fold increase in binding of labelled IGF-I to VN-coated wells (vitronectin [1]): 20 fold
B1: IGFBP-3 glycosylation mutant (Non-gly IGFBP-3) (other, UniProt P17936 28-291, looked up)
chain: GASSAGLGPVVRCEPCDARALAQCAPPPAVCAELVREPGCGCCLTCALSEGQPCGIYTERCGSGLRCQPSPDEARPLQALLDGRGLCVAASAVSRLRAYLLPAPPAPGAASESEEDRSAGSVESPSVSSTHRVSDPKFHPLHSKIIIIKKGHAKDSQRYKVDYESQSTDTQAFSSESKRETEYGPCRREMEDTLNHLKFLNVLSPRGVHIPNCDKKGFYKKKQCRPSKGRKRGFCWCVDKYGQPLPGYTTKGKEDVHCYSMQSK
modifications: non-glycosylated (glycosylation sites mutated)
notes: they probably count on mature IGFBP-3; also called non-glycosylated IGFBP-3 mutant; mutant IGFBP-3

fold increase in binding of labelled IGF-I to VN-coated wells against wells without IGFBP (vitronectin [2]): ~3.8 fold
B2: recombinant IGFBP-4 produced in mammalian cells (other, UniProt P22692 22-258, looked up)
chain: DEAIHCPPCSEEKLARCRPPVGCEELVREPGCGCCATCALGLGMPCGVYTPRCGSGLRCYPPRGVEKPLHTLMHGQGVCMELAEIEAIQESLQPSDKDEGDHPNNSFSPCSAHDRRCLQKHFAKIRDRSTSGGKMKVNGAPREDARPVPQGSCQSELHRALERLAASQSRTHEDLYIIPIPNCDRNGNFHPKQCHPALDGQRGKCWCVDRKTGVKLPGGLEPKGELDCHQLADSFRE

fold increase in binding of labelled IGF-I to VN-coated wells against wells without IGFBP (vitronectin [2]): ~2.8 fold
B3: recombinant IGFBP-2 produced in mammalian cells (other, UniProt P18065 36-325, looked up)
chain: AEVLFRCPPCTPERLAACGPPPVAPPAAVAAVAGGARMPCAELVREPGCGCCSVCARLEGEACGVYTPRCGQGLRCYPHPGSELPLQALVMGEGTCEKRRDAEYGASPEQVADNGDDHSEGGLVENHVDSTMNMLGGGGSAGRKPLKSGMKELAVFREKVTEQHRQMGKGGKHHLGLEEPKKLRPPPARTPCQQELDQVLERISTMRLPDERGPLEHLYSLHIPNCDKHGLYNLKQCKMSLNGQRGECWCVNPNTGKLIQGAPTIRGDPECHLFYNEQQEARGVHTQRMQ
